One may read the EC50 as the concentration giving half of the maximal effect. The low end stands for greater potency, the high end for weaker potency.

The target in this test is transferrin receptor 1 (TfR1), human (human, UniProt P02786 1-760). Briefly: FACS binding, Raji cells, 4 °C.
transferrin receptor 1 (TfR1), human, sequence (P02786 whole entry): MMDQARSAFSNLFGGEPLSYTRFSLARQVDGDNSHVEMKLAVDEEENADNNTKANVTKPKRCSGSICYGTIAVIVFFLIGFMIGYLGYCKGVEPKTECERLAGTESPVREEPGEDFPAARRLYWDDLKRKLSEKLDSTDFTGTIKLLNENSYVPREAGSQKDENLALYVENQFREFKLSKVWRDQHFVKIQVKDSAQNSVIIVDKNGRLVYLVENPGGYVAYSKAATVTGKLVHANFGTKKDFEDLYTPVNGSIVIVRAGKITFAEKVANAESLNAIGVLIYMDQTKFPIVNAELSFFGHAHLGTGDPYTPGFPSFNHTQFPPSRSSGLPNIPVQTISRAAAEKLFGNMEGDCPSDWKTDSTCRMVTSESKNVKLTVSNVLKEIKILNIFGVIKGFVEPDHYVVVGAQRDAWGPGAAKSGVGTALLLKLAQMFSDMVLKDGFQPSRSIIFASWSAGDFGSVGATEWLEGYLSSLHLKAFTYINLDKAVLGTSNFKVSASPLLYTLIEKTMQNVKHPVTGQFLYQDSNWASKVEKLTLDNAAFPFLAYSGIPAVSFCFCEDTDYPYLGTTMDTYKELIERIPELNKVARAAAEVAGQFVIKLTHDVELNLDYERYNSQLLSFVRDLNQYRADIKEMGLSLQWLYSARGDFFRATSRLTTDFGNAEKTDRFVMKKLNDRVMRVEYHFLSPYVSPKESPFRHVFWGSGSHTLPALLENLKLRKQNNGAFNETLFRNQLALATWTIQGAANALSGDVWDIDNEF

B1: F12-IgG1 (IgG1 anti-TfR1 F12 antibody) (antibody, V domains shown)
VH: QVQLQESGGGLVQPGGSLRLSCAASGFSFNTYTMHWVRQAPGKGLEWVADIAYDGSTKYYADSVKGRFTISRDNAKNSLYLQMNSLRAEDTAVYYCARDAVAGEGYFDLWGRGTLVTVSS
VL: QSALTQDPAVSVALGQTVRITCQGDSLRSYYASWYQQLPGTAPKLLIYRNNQRPSGVPDRFSGSKSGTSASLAISGLRSEDEADYYCAAWDDSLSAWVFGGGTKLTVLG
Turning to B1, the EC50 was 1.13 nM.

The record behind these values is US20230183379A1 (published 2023).
